The target of assay [1] is recombinant CsgA-His6 (E. coli) (UniProt P28307).
Assay [2] shares this target. The assay is described as follows: thioflavin T fluorescence quantified by confocal microscopy; monomeric CsgA with equimolar LL-37, sLL-37 or VIP and 20 µM ThT, over night at 37°C, washed; fluorescence relative to CsgA alone.

Experimental findings from PMC2908543, “Uropathogenic Escherichia coli Modulates Immune Responses and Its Curli Fimbriae Interact with the Antimicrobial Peptide LL-37” (PLoS Pathogens, 2010) are described below.

For the substance human antimicrobial peptide LL-37, the curli-mediated biofilm formation of E. coli in microtiter plates (crystal violet), reduction by 2.5 µM LL-37; the pair blocked is CsgA with CsgA (polymerization) in assay [1] was over 80%. For the same substance, the ThT fluorescence of CsgA with the peptide at 1:1, relative to CsgA alone (1 arbitrary unit) (arbitrary units) in assay [2] was found to be 0.05.
